This is an account of results in paper doi:10.1101/2020.09.30.318261.

The target in this assay is SARS-CoV-2 prefusion stabilised spike ectodomain trimer (SARS-CoV-2) (UniProt P0DTC2). Put plainly: cryo-EM structure.

One may read the stoichiometry N as a count of units in the complex or per binding partner. “SARS-CoV-2 prefusion stabilised spike ectodomain trimer (from UniProt P0DTC2 14-1200) (domain or fragment)” yielded a stoichiometry N of 3.
